Laboratory results published in article PMC5827449, “Structural analysis of group II chitinase (ChtII) catalysis completes the puzzle of chitin hydrolysis in insects” (The Journal of Biological Chemistry, 2018).

B1: OfChtII-C2 (Ostrinia furnacalis) (protein)
chain: ERFKVVCYYTNWAWYRPDNGKYTPGDINPELCTHIIYAFAVLDKEELVIKSHDIWLDVENKFYEKVTALKSHGVKVLLGLGGWDDSAGDKYSRLVNNVSARRKFVVHAVDFLEQYGFDGLDLDWEYPKCWQVECEKGPDSDKQGFADLVKELRKAFNRRGMLLSAAVSASKRVIDYAYNVPALSMNLDWISLMTYDYHGQWDKKTGHVAPMYVHDKDTDNTFNVNFTVNYWINKGADRKKLVVGVPFYGQSFSVVEGAGTGLGAPTYAGGEAGDETRARGFLSFYEICERVKVKGWKVHRDPGGRIGPYATHDDQWVSFDDDFMARHKAEYVRAMELGGSMAWSLDLDDFTGKYCGCGKAPLLTTINHVLRGKEAPPPCIL
notes: single GH18 catalytic domain C2 (barrel 2059-2301 and 2377-2426); His-tag purified from Pichia pastoris GS115
B2: OfChi-h (Ostrinia furnacalis) (protein)
chain: APPGKPSLGWGERTFAIVEVNQAATAYNQLVTKRDSADVSVTWNVWSGDPADKARVLLNDKEFWSGTGGAAGSASFKVKKGGRYQMVVELCNADGCSQSDATEIIVADTDGSHLPPLDYNMGEKNKPFKQTSGKVVGAYFVEWGVYPRKFPVDRVPIPNLTHLLYGFIPICGGDGINDSLKEIEGSFQALQRSCSGREDFKVSIHDPWAALQKPQKGLSSWNEPYKGNFGQLMMLKQAKPDLKILPSIGGWTLADPFFFFTDETKRRRFVASVKDFLQTWKFFDGVDIDWEFPGGKGANPNLGSPKDGEIYVLLMKELREMLNELSAETGRKYELTSAISAGWDKIQVVDYSAAQKYMDHIFFMSYDFKGAWSNDTLGHQASLYAPDWNEKETYTTDFGVQFLLAQGVSPKKIVVGVAMYGRGWTGVHGYKDNNPFTGNATGPVKGTWQDGVVDYREIATEIAQGKWEYHYDKVAQAPYVFRPATGDLITYDDARSTIEKGKYVRANKLGGLFAWEIDADNGDILNAMNMGLGNSA

Assays:
[1] = substrate: CC(=O)N[C@H]1[C@H](Oc2ccc3c(C)cc(=O)oc3c2)O[C@H](CO)[C@@H](O[C@@H]2O[C@H](CO)[C@@H](O)[C@H](O)[C@H]2NC(C)=O)[C@@H]1O; assay: fluorescence of released 4-methylumbelliferone; assay type: biochemical, Ostrinia furnacalis; details: pH 6.0, 20 mM sodium phosphate, 303 K, 20 min, 30.0 °C
Excerpt: fluorescence of released 4-methylumbelliferone on OfChtII-C2

[2] = substrate: CC(=O)N[C@H]1[C@H](Oc2ccc3c(C)cc(=O)oc3c2)O[C@H](CO)[C@@H](O[C@@H]2O[C@H](CO)[C@@H](O)[C@H](O)[C@H]2NC(C)=O)[C@@H]1O; assay: fluorescence of released 4-methylumbelliferone; assay type: biochemical, Ostrinia furnacalis; details: pH 6.0, 20 mM sodium phosphate, 303 K, 20 min, 30.0 °C; remark: listed apart in the source
Excerpt: fluorescence of released 4-methylumbelliferone on OfChi-h

Protein | Km [1] [µM] | kcat [1] [s⁻¹] | kcat/Km [1] [M⁻¹ s⁻¹] | Km [2] [µM] | kcat [2] [s⁻¹] | kcat/Km [2] [M⁻¹ s⁻¹]
B1 | 11.93 ± 0.50 | 0.2037 ± 0.0025 | 17000 | – | – | –
B2 | – | – | – | 7.32 ± 0.35 | 3.1378 ± 0.0885 | 429000
